Data on nine molecules can be found in publication PMC4551915, “Bacteriophage GIL01 gp7 interacts with host LexA repressor to enhance DNA binding and inhibit RecA-mediated auto-cleavage” (Nucleic Acids Research, 2015).

For series [1], the target named is T1, His6-gp7 (Bacillus phage GIL01) (UniProt Q7WSG2).
T1 sequence: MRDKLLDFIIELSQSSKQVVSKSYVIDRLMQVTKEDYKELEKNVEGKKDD
Nature of the series: EMSA. The following applies: EMSA/footprint: 80 mM NaCl, 25 mM Tris pH 7.5, 5 mM EDTA, 2 mM DTT, 0.1 mg/ml BSA, 0.05 ug/ul poly(dI-dC), room temp; SPR: 25 mM Tris-HCl pH 7.3, 140 mM NaCl …. For orientation: A gel shift assay detects complexes by their altered migration in electrophoresis.

The target in series [2] is T1, His6-gp7 (Bacillus phage GIL01). Nature of the series: DNase I footprinting. The following applies: EMSA/footprint: 80 mM NaCl, 25 mM Tris pH 7.5, 5 mM EDTA, 2 mM DTT, 0.1 mg/ml BSA, 0.05 ug/ul poly(dI-dC), room temp; SPR: 25 mM Tris-HCl pH 7.3, 140 mM NaCl ….
The target in series [3] is T2, His6-LexA (Bacillus thuringiensis LexA repressor) (B. thuringiensis, UniProt A0RH75 1-206).
T2 construct: LexA, SOS transcription repressor of Bacillus thuringiensis; insert defined by nucleotide coordinates 3 624 082 through 3 624 714 in B. cereus strain G9842 (GenBank NC_011772), cloned BamHI-HindIII into pQE-30; also called His-tagged LexA; B. thuringiensis LexA repressor; source: E. coli M15 [pREP4], pQE-30, purified (Ni-NTA); not shown: His6, N-terminal, kept
T2 sequence (looked up): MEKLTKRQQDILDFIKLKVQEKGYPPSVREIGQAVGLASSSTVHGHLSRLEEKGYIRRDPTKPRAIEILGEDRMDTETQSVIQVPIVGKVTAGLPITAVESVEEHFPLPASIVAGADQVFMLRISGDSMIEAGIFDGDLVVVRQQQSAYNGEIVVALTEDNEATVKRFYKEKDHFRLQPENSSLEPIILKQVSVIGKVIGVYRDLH
Nature of the series: SPR; Biacore T100, CM5 chip, His-tagged LexA covalently coupled (EDC/NHS, ~2000 RU), no DNA; His-tagged gp7 (1.6-50 nM, 360 s) or gp1 as analyte; 25°C, 30 μl/min, SPR buffer (25 mM Tris-HCl pH 7.3, 140 mM NaCl, 5 mM EDTA, 2 mM DTT, 0.1 mg/ml BSA, 0.005% P20); apparent KD from plot of response against concentration, assuming one gp7 monomer per LexA monomer. The following applies: both partners purified. A general note: Surface plasmon resonance follows binding to a sensor surface in real time, without labels.

Another series concerns the target T3, His6-gp7 (Bacillus phage GIL01, UniProt Q7WSG2 1-50).
T3 chain: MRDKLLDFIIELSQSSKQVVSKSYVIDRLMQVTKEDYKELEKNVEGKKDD
Nature of the series: SPR; 300 nM gp7; EMSA/footprint: 80 mM NaCl, 25 mM Tris pH 7.5, 5 mM EDTA, 2 mM DTT, 0.1 mg/ml BSA, 0.05 ug/ul poly(dI-dC), room temp; SPR: 25 mM Tris-HCl pH 7.3, 140 mM NaCl, 5 mM EDTA, 2 mM DTT, 0.1 mg/ml BSA, 0.005% P20, 25 C. The conditions noted are these: protein: recombinant; tags: N-terminal His6 (pQE-30); label: 3'-biotin on S1 anchor; 42 bp; 15 nt 5' overhang annealed to S1.

Where no end group is shown, it is not given here.

On to “CCAAGGGTGCTATAATAGGAAATGAGTTAAAAAACGAACAAGCGTTTTATAAGTGTTCGGTTTTTGTAACATAACTGTAATATAAAAACATTTGCATTACTGGTAACTTTCGGGTAATATTGGTAGCAGAGAGGGACAAACGGGACAAATCGAGACACGATACATACTCTCTATACAAGTGAAAAGAAGGTGGTGCATAT (double strand) [P1 EMSA probe WT (-25 to +176)]”, for which, in series [1], the binding entry is listed as “no binding”.
On to “GTGTGACAAGATATTCCAAGGGTGCTATAATAGGAAATGAGTTAAAAAACGAACAAGCGTTTTATAAGTGTTCGGTTTTTGTAACATAACTGTAATATAAAAACATTTGCATTACTGGTAACTTTCGGGTAATATTGGTAGCAGAGAGGGACAAACGGGACAAATCGAGACACGATACATACTCTCTATACAAGTGAAAAGAAGGTGGTGCATAT (double strand) [P1 footprint probe WT (-39 to +176)]”, for which the binding result in series [2] was “no binding”.

B1: His6-gp7 (bacteriophage GIL01 gp7, product of ORF7) (natural protein)
chain: His6-MRDKLLDFIIELSQSSKQVVSKSYVIDRLMQVTKEDYKELEKNVEGKKDD
Regarding B1, the Kd in series [3] was 17.7 nM.

B2: SPR Wt (dinBox1+dinBox1b) (dsDNA)
DNA 1: GTTACTACTCGAGCGTTAAAAAACGAACAAGCGTTTTATAAGTGTTCGGTTTTTGTA
DNA 2: TACAAAAACCGAACACTTATAAAACGCTTGTTCGTTTTTTAA
DNA 3: CGCTCGAGTAGTAAC
For B2, the binding result in the series with His6-gp7 is reported as “no binding”.

B3: SPR Ns (non-specific; both boxes mutated) (dsDNA)
DNA 1: GTTACTACTCGAGCGTTAAAAAACTAACAAGCTTTTTATAAGTATTCAGTTTTTGTA
DNA 2: TACAAAAACTGAATACTTATAAAAAGCTTGTTAGTTTTTTAA
DNA 3: CGCTCGAGTAGTAAC
Consider B3, for which the binding result with His6-gp7 is recorded as “no binding”.

B4: SPR B11 (dinBox1 single mutant) (dsDNA)
DNA 1: GTTACTACTCGAGCGTTAAAAAACGAACAAGCTTTTTATAAGTGTTCGGTTTTTGTA
DNA 2: TACAAAAACCGAACACTTATAAAAAGCTTGTTCGTTTTTTAA
DNA 3: CGCTCGAGTAGTAAC
B4: in the series with His6-gp7, the binding result is on record as “no binding”.

B5: SPR B22 (dinBox1b double mutant) (dsDNA)
DNA 1: GTTACTACTCGAGCGTTAAAAAACGAACAAGCGTTTTATAAGTATTCAGTTTTTGTA
DNA 2: TACAAAAACTGAATACTTATAAAACGCTTGTTCGTTTTTTAA
DNA 3: CGCTCGAGTAGTAAC
In the case of B5, the binding result in the series with His6-gp7 is “no binding”.

B6: SPR B12 (dinBox1 double mutant) (dsDNA)
DNA 1: GTTACTACTCGAGCGTTAAAAAACTAACAAGCTTTTTATAAGTGTTCGGTTTTTGTA
DNA 2: TACAAAAACCGAACACTTATAAAAAGCTTGTTAGTTTTTTAA
DNA 3: CGCTCGAGTAGTAAC
With B6, the binding result with His6-gp7 was “no binding”.

B7: SPR B21 (dinBox1b single mutant) (dsDNA)
DNA 1: GTTACTACTCGAGCGTTAAAAAACGAACAAGCGTTTTATAAGTGTTCAGTTTTTGTA
DNA 2: TACAAAAACTGAACACTTATAAAACGCTTGTTCGTTTTTTAA
DNA 3: CGCTCGAGTAGTAAC
As to B7, the binding result with His6-gp7 is recorded as “no binding”.
